Data: PMC3924863 (Cancer research, 2013)
Residue numbers refer to the chain shown, from its start.

B1: LJM716 (antibody, V domains shown)
VH: EVQLLESGGGLVQPGGSLRLSCAASGFTFSSYAMSWVRQAPGKGLEWVSAINSQGKSTYYADSVKGRFTISRDNSKNTLYLQMNSLRAEDTAVYYCARWGDEGFDIWGQGTLVTVSS
VL: DIQMTQSPSSLSASVGDRVTITCRASQGISNWLAWYQQKPGKAPKLLIYGASSLQSGVPSRFSGSGSGTDFTLTISSLQPEDFATYYCQQYSSFPTTFGQGTKVEIK
B2: MOR09825 Fab (Fab, V domains shown)
VH: B1 VH with E1Q, L5V
VL: B1 VL with T85V

How the values were obtained:
[1] = target: recombinant monomeric cynomolgus monkey HER3 extracellular domain (cynomolgus monkey); assay: solution equilibrium titration
[2] = target: T1, recombinant monomeric human HER3 extracellular domain (human, UniProt P21860); assay: solution equilibrium titration
[3] = target: recombinant mouse HER3 extracellular domain (Mus musculus, UniProt Q61526); assay: solution equilibrium titration
[4] = target: recombinant monomeric rat HER3 extracellular domain (Rattus norvegicus, UniProt Q62799); assay: solution equilibrium titration
[5] = target: Fc-tagged EGFR extracellular domain (Homo sapiens (assumed), UniProt P00533); assay: ELISA
[6] = target: Fc-tagged HER2 extracellular domain (Homo sapiens (assumed), UniProt P04626); assay: ELISA
[7] = target: Fc-tagged HER4 extracellular domain (Homo sapiens (assumed), UniProt Q15303); assay: ELISA
[8] = target: isolated HER3 domains D3-4 (Homo sapiens, UniProt P21860); assay: ELISA
[9] = target: T1, recombinant monomeric human HER3 …; assay: ELISA

Row | Binder | Kd [1] | Kd [2] | Kd [3] | Kd [4] | binding result [5] | binding result [6] | binding result [7] | binding result [8] | binding result [9]
1 | B1 | 0.043 nM | 0.032 nM | 0.037 nM | 0.057 nM | no binding | no binding | no binding |  | 
2 | B2 |  |  |  |  |  |  |  | no binding | binds
